Our source for the Kd and half-life of the dimer values is publication PMC4284922.

Usually Kd stands for the equilibrium constant for the complex coming apart.

For one experiment, the target named is STAT1 (Homo sapiens) (UniProt P42224). Nature of the experiment: analytical ultracentrifugation. The note with it: cited from earlier work.
Experiment [1] addresses T1, untagged STAT1, wild type (human), P42224.
T1 chain: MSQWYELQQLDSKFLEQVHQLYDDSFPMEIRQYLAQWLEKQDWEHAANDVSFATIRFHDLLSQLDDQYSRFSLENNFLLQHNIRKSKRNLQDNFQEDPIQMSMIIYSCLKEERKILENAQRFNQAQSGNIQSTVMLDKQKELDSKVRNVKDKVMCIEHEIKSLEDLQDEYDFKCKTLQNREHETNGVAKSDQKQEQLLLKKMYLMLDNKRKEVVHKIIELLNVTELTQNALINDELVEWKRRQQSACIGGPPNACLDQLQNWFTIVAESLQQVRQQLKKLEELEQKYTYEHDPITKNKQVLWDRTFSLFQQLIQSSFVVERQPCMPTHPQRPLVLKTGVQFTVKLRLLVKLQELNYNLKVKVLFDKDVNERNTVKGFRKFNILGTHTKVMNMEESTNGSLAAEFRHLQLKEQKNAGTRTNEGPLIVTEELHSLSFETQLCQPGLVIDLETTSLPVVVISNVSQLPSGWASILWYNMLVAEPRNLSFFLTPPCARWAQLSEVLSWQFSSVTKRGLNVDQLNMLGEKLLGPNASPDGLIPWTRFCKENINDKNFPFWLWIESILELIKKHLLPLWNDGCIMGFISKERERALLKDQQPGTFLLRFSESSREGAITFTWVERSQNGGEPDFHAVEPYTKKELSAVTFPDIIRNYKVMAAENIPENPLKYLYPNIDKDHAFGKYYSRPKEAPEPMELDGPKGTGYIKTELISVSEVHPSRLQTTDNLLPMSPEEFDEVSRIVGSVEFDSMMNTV
Nature of the experiment: native gel or EMSA; extracts with GFP-tagged and with untagged STAT1 mixed and co-incubated for 0, 15 or 30 min at room temperature with [33P]-labelled M67 (single GAS site); band of intermediate mobility. The settings on record: remark: other sources report otherwise.

Where only a bound is given, the exact number is not on record here.

STAT1 (from UniProt P42224): the Kd with STAT1 (Homo sapiens) is 50 nM.

B1: untagged STAT1, wild type, P42224 1-750 (natural protein)
chain: T1 chain
modifications: here or on the partner: phosphotyrosine at 701 (tyrosine-phosphorylated, from IFNγ-stimulated cells); phosphotyrosine at 701 (tyrosine-phosphorylated, from IFNγ-stimulated cells)
With B1, the half-life of the dimer in experiment [1] was over 10 min.
